Measurements as given in patent publication US20240409645A1 (DUALYX, published 2024).
Like-named read-outs stand apart in the source and are kept apart here.

Tests used:
[1] = molecular target: T1, human IL-2 receptor (IL-2Rα/IL-2Rβ/γc) (human, UniProt P01589 22-272; P14784 27-551; P31785 23-369); assay: cell-based or functional assay
T1 sequence 1: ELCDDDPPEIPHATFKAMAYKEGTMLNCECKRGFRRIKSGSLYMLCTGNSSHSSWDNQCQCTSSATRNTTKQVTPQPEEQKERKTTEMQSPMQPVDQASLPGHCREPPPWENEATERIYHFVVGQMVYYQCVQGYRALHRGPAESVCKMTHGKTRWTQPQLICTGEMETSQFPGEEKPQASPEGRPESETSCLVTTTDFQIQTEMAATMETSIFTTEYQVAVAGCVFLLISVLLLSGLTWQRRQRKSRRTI
T1 sequence 2: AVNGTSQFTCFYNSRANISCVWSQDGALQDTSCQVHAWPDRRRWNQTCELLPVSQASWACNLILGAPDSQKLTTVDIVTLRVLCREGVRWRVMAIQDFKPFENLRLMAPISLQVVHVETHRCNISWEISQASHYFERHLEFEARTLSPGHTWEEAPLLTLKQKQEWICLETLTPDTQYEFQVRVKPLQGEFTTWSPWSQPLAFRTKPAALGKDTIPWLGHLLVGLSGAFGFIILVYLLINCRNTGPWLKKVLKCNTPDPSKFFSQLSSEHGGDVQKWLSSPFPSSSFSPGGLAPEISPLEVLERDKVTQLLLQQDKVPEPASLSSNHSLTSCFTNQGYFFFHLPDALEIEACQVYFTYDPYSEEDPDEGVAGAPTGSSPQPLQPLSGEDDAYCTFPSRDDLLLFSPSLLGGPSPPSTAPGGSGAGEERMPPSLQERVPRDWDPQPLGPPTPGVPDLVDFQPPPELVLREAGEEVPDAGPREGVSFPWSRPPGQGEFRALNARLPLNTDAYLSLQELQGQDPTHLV
T1 sequence 3: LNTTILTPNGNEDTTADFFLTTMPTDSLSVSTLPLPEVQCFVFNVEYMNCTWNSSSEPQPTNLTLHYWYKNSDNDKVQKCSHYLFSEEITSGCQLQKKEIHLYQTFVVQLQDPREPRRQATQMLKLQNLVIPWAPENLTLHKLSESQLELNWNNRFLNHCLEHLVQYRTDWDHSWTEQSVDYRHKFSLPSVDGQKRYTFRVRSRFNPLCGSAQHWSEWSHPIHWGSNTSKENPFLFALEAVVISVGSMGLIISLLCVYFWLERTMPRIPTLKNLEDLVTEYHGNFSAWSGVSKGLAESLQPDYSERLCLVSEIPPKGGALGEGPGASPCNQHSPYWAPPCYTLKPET

[2] = molecular target: T1, human IL-2 receptor (IL-2Rα/IL-2Rβ/γc); assay: cell-based or functional assay; remark: listed apart in the source

B1: DC00075 (other)
chain 1: QVQLVESGGGLVQAGGSLRLSCAASGIPFDNYAMGWFRQAPGKEREFVAARDLEGIITRYGDSVKGRFTISRGNAKNTVFLQMNSLKPEDTAVYYCAARDGGVVAGSRSSAQYNYWGQGTQVTVSSDKTHTCPPCPAPEAAGGPSVFLFPPKPKDTLMISRTPEVTCVVVDVSHEDPEVKFNWYVDGVEVHNAKTKPREEQYNSTYRVVSVLTVLHQDWLNGKEYKCKVSNKALGAPIEKTISKAKGQPREPQVYTLPPSRDELTKNQVSLTCLVKGFYPSDIAVEWESNGQPENNYKTTPPVLDSDGSFLLYSKLTVDKSRWQQGNVFSCSVMHEALHNHYTQKSLSLSPGK
chain 2: EVQLVESGGGLVQTGGSLRLSCAASGGTFSRDAMAWFRQVPGKEREFVALISWSGATTNYADSVKGRFAISRDNGKNTVYLQMNRLKPADTAIYYCAADRRPMGSRSYFEPTEYDDWGQGTQVTVSSGGGGSGGGGSGGGGSQVQLVESGGGLVQPGGSLRLSCATSGFTFRNNFMSWVRQAPGKGLEWVSTISYGGESTTYAESVKGRFTISRDNAKNTLYLQMNNLKPEDTAVYYCAKATSYDSIRSGSRGQGTQVTVSSGGGGSGGGGSGGGGSQVQLVESGGGLVQAGGSLTLSCAAPGRTFGTDVVGWFRQAPGKEREFVASISRSGDGIYYDDSVKGRFTISRNNAWNTVNLQMNSLKVEDTAVYYCAAGDGWSTYDYWGQGTQVTVSSGGGGSGGGGSGGGGSDKTHTCPPCPAPEAAGGPSVFLFPPKPKDTLMISRTPEVTCVVVDVSHEDPEVKFNWYVDGVEVHNAKTKPREEQYNSTYRVVSVLTVLHQDWLNGKEYKCKVSNKALGAPIEKTISKAKGQPREPQVYTLPPSRDELTKNQVSLTCLVKGFYPSDIAVEWESNGQPENNYKTTPPVLDSDGSFFLYSRLTVDKSRWQQGNVFSCSVMHEALHNHYTQKSLSLSPGK
For B1, the “EC50 (nM) pSTAT5, NK, human PBMCs” value [1] was 0.0032 nM, the “EC50 (nM) pSTAT5, Treg, human PBMCs” value [1] was under 0.1 pM and the “Fold Max signal (% pSTAT5+) Treg/NK” value [1] was 12 fold. For the same binder, the “Max signal (% pSTAT5+), NK” value [1] was 4.31 % pSTAT5+, the “Max signal (% pSTAT5+), Treg” value [1] was 53.1 % pSTAT5+ and the “fold EC50 NK/Treg” value [1] was over 32 fold.

B2: DC00076 (other)
chain 1: B1 chain 1
chain 2: QVQLVESGGGLVQPGGSLRLSCATSGFTFRNNFMSWVRQAPGKGLEWVSTISYGGESTTYAESVKGRFTISRDNAKNTLYLQMNNLKPEDTAVYYCAKATSYDSIRSGSRGQGTQVTVSSGGGGSGGGGSGGGGSQVQLVESGGGLVQAGGSLTLSCAAPGRTFGTDVVGWFRQAPGKEREFVASISRSGDGIYYDDSVKGRFTISRNNAWNTVNLQMNSLKVEDTAVYYCAAGDGWSTYDYWGQGTQVTVSSGGGGSGGGGSGGGGSEVQLVESGGGLVQTGGSLRLSCAASGGTFSRDAMAWFRQVPGKEREFVALISWSGATTNYADSVKGRFAISRDNGKNTVYLQMNRLKPADTAIYYCAADRRPMGSRSYFEPTEYDDWGQGTQVTVSSGGGGSGGGGSGGGGSDKTHTCPPCPAPEAAGGPSVFLFPPKPKDTLMISRTPEVTCVVVDVSHEDPEVKFNWYVDGVEVHNAKTKPREEQYNSTYRVVSVLTVLHQDWLNGKEYKCKVSNKALGAPIEKTISKAKGQPREPQVYTLPPSRDELTKNQVSLTCLVKGFYPSDIAVEWESNGQPENNYKTTPPVLDSDGSFFLYSRLTVDKSRWQQGNVFSCSVMHEALHNHYTQKSLSLSPGK
With B2 the “EC50 (nM) pSTAT5, NK, human PBMCs” value [1] was 2.42 nM, the “EC50 (nM) pSTAT5, Treg, human PBMCs” value [1] was under 0.1 pM and the “Fold Max signal (% pSTAT5+) Treg/NK” value [1] was 4 fold. For the same binder, the “Max signal (% pSTAT5+), NK” value [1] was 14 % pSTAT5+, the “Max signal (% pSTAT5+), Treg” value [1] was 59.4 % pSTAT5+ and the “fold EC50 NK/Treg” value [1] was over 24200 fold.

B3: DC00077 (other)
chain 1: B1 chain 1
chain 2: QVQLVESGGGLVQPGGSLRLSCATSGFTFRNNFMSWVRQAPGKGLEWVSTISYGGESTTYAESVKGRFTISRDNAKNTLYLQMNNLKPEDTAVYYCAKATSYDSIRSGSRGQGTQVTVSSGGGGSGGGGSGGGGSEVQLVESGGGLVQTGGSLRLSCAASGGTFSRDAMAWFRQVPGKEREFVALISWSGATTNYADSVKGRFAISRDNGKNTVYLQMNRLKPADTAIYYCAADRRPMGSRSYFEPTEYDDWGQGTQVTVSSGGGGSGGGGSGGGGSQVQLVESGGGLVQAGGSLTLSCAAPGRTFGTDVVGWFRQAPGKEREFVASISRSGDGIYYDDSVKGRFTISRNNAWNTVNLQMNSLKVEDTAVYYCAAGDGWSTYDYWGQGTQVTVSSGGGGSGGGGSGGGGSDKTHTCPPCPAPEAAGGPSVFLFPPKPKDTLMISRTPEVTCVVVDVSHEDPEVKFNWYVDGVEVHNAKTKPREEQYNSTYRVVSVLTVLHQDWLNGKEYKCKVSNKALGAPIEKTISKAKGQPREPQVYTLPPSRDELTKNQVSLTCLVKGFYPSDIAVEWESNGQPENNYKTTPPVLDSDGSFFLYSRLTVDKSRWQQGNVFSCSVMHEALHNHYTQKSLSLSPGK
In the case of B3, the “EC50 (nM) pSTAT5, NK, human PBMCs” value [1] is reported as 0.191 pM, the “EC50 (nM) pSTAT5, Treg, human PBMCs” value [1] is reported as under 0.1 pM and the “Fold Max signal (% pSTAT5+) Treg/NK” value [1] is reported as 7 fold. The “Max signal (% pSTAT5+), NK” value [1] was 7.96 % pSTAT5+, the “Max signal (% pSTAT5+), Treg” value [1] was 58.4 % pSTAT5+ and the “fold EC50 NK/Treg” value [1] was over 1.91 fold.

B4: DC00051 (other)
chain 1: QVQLVESGGGLVQPGGSLRLSCATSGFTFRNNFMSWVRQAPGKGLEWVSTISYGGESTTYAESVKGRFTISRDNAKNTLYLQMNNLKPEDTAVYYCAKATSYDSIRSGSRGQGTQVTVSSGGGGSGGGGSGGGGSQVQLVESGGGLVQPGGSLRLSCATSGFTFRNNFMSWVRQAPGKGLEWVSTISYGGESTTYAESVKGRFTISRDNAKNTLYLQMNNLKPEDTAVYYCAKATSYDSIRSGSRGQGTQVTVSSDKTHTCPPCPAPEAAGGPSVFLFPPKPKDTLMISRTPEVTCVVVDVSHEDPEVKFNWYVDGVEVHNAKTKPREEQYNSTYRVVSVLTVLHQDWLNGKEYKCKVSNKALGAPIEKTISKAKGQPREPQVYTLPPSRDELTKNQVSLTCLVKGFYPSDIAVEWESNGQPENNYKTTPPVLDSDGSFLLYSKLTVDKSRWQQGNVFSCSVMHEALHNHYTQKSLSLSPGK
chain 2: QVQLVESGGGLVQAGGSLTLSCAAPGRTFGTDVVGWFRQAPGKEREFVASISRSGDGIYYDDSVKGRFTISRNNAWNTVNLQMNSLKVEDTAVYYCAAGDGWSTYDYWGQGTQVTVSSGGGGSGGGGSGGGGSEVQLVESGGGLVQTGGSLRLSCAASGGTFSRDAMAWFRQVPGKEREFVALISWSGATTNYADSVKGRFAISRDNGKNTVYLQMNRLKPADTAIYYCAADRRPMGSRSYFEPTEYDDWGQGTQVTVSSGGGGSGGGGSGGGGSQVQLVESGGGLVQPGGSLRLSCATSGFTFRNNFMSWVRQAPGKGLEWVSTISYGGESTTYAESVKGRFTISRDNAKNTLYLQMNNLKPEDTAVYYCAKATSYDSIRSGSRGQGTQVTVSSDKTHTCPPCPAPEAAGGPSVFLFPPKPKDTLMISRTPEVTCVVVDVSHEDPEVKFNWYVDGVEVHNAKTKPREEQYNSTYRVVSVLTVLHQDWLNGKEYKCKVSNKALGAPIEKTISKAKGQPREPQVYTLPPSRDELTKNQVSLTCLVKGFYPSDIAVEWESNGQPENNYKTTPPVLDSDGSFFLYSRLTVDKSRWQQGNVFSCSVMHEALHNHYTQKSLSLSPGK
In the case of B4, the “EC50 (nM) pSTAT5, NK, human PBMCs” value [2] is reported as 0.191 nM, the “EC50 (nM) pSTAT5, Treg, human PBMCs” value [2] is reported as under 0.1 pM and the “Fold Max signal (% pSTAT5+) Treg/NK” value [2] is reported as 3 fold. The “Max signal (% pSTAT5+), NK” value [2] was 33 % pSTAT5+, the “Max signal (% pSTAT5+), Treg” value [2] was 96 % pSTAT5+ and the “fold EC50 NK/Treg” value [2] was over 1910 fold.

B5: DC00052 (other)
chain 1: B4 chain 1
chain 2: QVQLVESGGGLVQAGGSLTLSCAAPGRTFGTDVVGWFRQAPGKEREFVASISRSGDGIYYDDSVKGRFTISRNNAWNTVNLQMNSLKVEDTAVYYCAAGDGWSTYDYWGQGTQVTVSSGGGGSGGGGSGGGGSQVQLVESGGGLVQPGGSLRLSCATSGFTFRNNFMSWVRQAPGKGLEWVSTISYGGESTTYAESVKGRFTISRDNAKNTLYLQMNNLKPEDTAVYYCAKATSYDSIRSGSRGQGTQVTVSSGGGGSGGGGSGGGGSEVQLVESGGGLVQTGGSLRLSCAASGGTFSRDAMAWFRQVPGKEREFVALISWSGATTNYADSVKGRFAISRDNGKNTVYLQMNRLKPADTAIYYCAADRRPMGSRSYFEPTEYDDWGQGTQVTVSSGGGGSGGGGSGGGGSDKTHTCPPCPAPEAAGGPSVFLFPPKPKDTLMISRTPEVTCVVVDVSHEDPEVKFNWYVDGVEVHNAKTKPREEQYNSTYRVVSVLTVLHQDWLNGKEYKCKVSNKALGAPIEKTISKAKGQPREPQVYTLPPSRDELTKNQVSLTCLVKGFYPSDIAVEWESNGQPENNYKTTPPVLDSDGSFFLYSRLTVDKSRWQQGNVFSCSVMHEALHNHYTQKSLSLSPGK
In the case of B5, the “EC50 (nM) pSTAT5, NK, human PBMCs” value [2] is reported as 0.0812 nM, the “EC50 (nM) pSTAT5, Treg, human PBMCs” value [2] is reported as 0.00403 nM and the “Fold Max signal (% pSTAT5+) Treg/NK” value [2] is reported as 8 fold. The “Max signal (% pSTAT5+), NK” value [2] was 9 % pSTAT5+, the “Max signal (% pSTAT5+), Treg” value [2] was 79 % pSTAT5+ and the “fold EC50 NK/Treg” value [2] was 20 fold.
